Tests used:
[1] = tested on: WT C. glutamicum; experiment: Number of ring-like structures per cell, overexpression in WT; assay type: cell-based, Corynebacterium glutamicum
[2] = tested on: FtsZ; details: immunoprecipitation coupled to crosslinking; unpaired t-test p 0.004
Protocol: Cells were harvested, washed, and normalized by resuspending cell pellets in PBS-T (1X PBS, 0.1% v/v Tween-80) to give a final OD600 of 3. The cell suspensions were cross-linked with 0.25% v/v of formaldehyde for 20 min at 30 °C with gentle agitation. The crosslinking reaction was stopped by adding 1.25 M glycine and incubated for 5 min at room temperature. Cells were resuspended in 50 mM Bis-Tris pH 7.4, 75 mM aminocaproic acid, 1 mM MgSO4, 1× Benzonase, 1× Complete Protease inhibitors cocktail (ROCHE) and disrupted at 4 °C with 0.1 mm glass beads and using a [sequence] 24 homogenizer. After lysis, 0.1% n-Dodecyl-β-D-Maltopyranoside was added and the total extract was incubated for 1 h at 4 °C. Cell lysates were centrifuged at 4 °C for 10 min at 14,000 rpm and the soluble fraction was collected and protein levels quantified.
Detergent-solubilized protein extracts were incubated with 50 μl of magnetic beads cross-linked with 10 μg of purified anti-Scarlet antibody (produced by Covalab). […] Tryptic peptides from three replicates of each condition were analyzed using a nano-HPLC (Ultimate 3000, Thermo) coupled to a hybrid quadrupole-orbitrap mass spectrometer (Q-Exactive Plus, Thermo). […]
Patternlab for proteomics was used for label-free quantitation analyses using extracted ion chromatogram (XIC).

[3] = tested on: Pino-sepF strain; experiment: Growth curves / complementation of the Pino-sepF strain; details: SepF depletion with 1% myo-inositol, exogenous construct induced
Protocol: Positive colonies were grown in BHI media supplemented with 25 µg/ml kanamycin overnight at 30 °C and 120 rpm shaking.
All strains were plated in CGXII media plates with 4% (w/v) sucrose as a carbon source for 2 days at 30 °C and then single colonies were inoculated in 10 ml of CGXII media 4% (w/v) sucrose overnight at 30 °C and 120 rpm shaking. The next day, 20 ml of CGXII media supplemented with the appropriate repressor or inducer were inoculated with the overnight cultures to a starting OD600 of 1. OD600 measurements were taken every 1.5 h. Each growth curve represents the average of three different growth curves originally from three different single colonies. […] When required, CGXII media 4% (w/v) sucrose was supplemented with either 1% (w/v) myo-inositol, 50 ng/ml tetracycline or 1% (w/v) gluconate and 25 μg/ml kanamycin.

[4] = tested on: Pino-sepF strain; experiment: Scarlet fluorescence localization in the Pino-sepF strain; assay type: cell-based, Corynebacterium glutamicum; details: 1% myo-inositol plus 1% gluconate
Protocol: For imaging, cultures of C. glutamicum were grown in BHI or minimal medium CGXII during the day, and washed and inoculated into CGXII media for overnight growth. The following day cultures were diluted to OD600 = 1 and grown to the required OD (early exponential phase) for imaging. For HADA labeling, cultures were incubated with 0.5 mM HADA for 20 min at 30 °C in the dark. Two percent agarose pads were prepared with the corresponding growth medium and cells were visualized using a Zeiss Axio Observer Z1 microscope fitted with an Orca Flash 4 V2 sCMOS camera (Hamamatsu), and a Pln-Apo 63×/1.4 oil Ph3 objective. Images were collected using Zen Blue 2.6 (Zeiss) and analyzed using the software Fiji[70] and the plugin MicrobeJ[71] to generate violin plots and fluorescent intensity heatmaps. Statistical analyses of cell lengths are summarized in Supplementary Tables 5 and 6. The experiments were performed as biological triplicates. Some autofluorescence is observed for wild-type C. glutamicum as shown in Supplementary Fig. 24.

[5] = tested on: Pino-sepF strain; experiment: Cell length distribution (violin plots), Pino-sepF strains; assay type: cell-based, Corynebacterium glutamicum; details: 1% myo-inositol + 1% gluconate, t = 6, replicate 1, listed as PgntK_SepF(K125R/F131A)_Scarlet
Protocol: For imaging, cultures of C. glutamicum were grown in BHI or minimal medium CGXII during the day, and washed and inoculated into CGXII media for overnight growth. The following day cultures were diluted to OD600 = 1 and grown to the required OD (early exponential phase) for imaging. For HADA labeling, cultures were incubated with 0.5 mM HADA for 20 min at 30 °C in the dark. Two percent agarose pads were prepared with the corresponding growth medium and cells were visualized using a Zeiss Axio Observer Z1 microscope fitted with an Orca Flash 4 V2 sCMOS camera (Hamamatsu), and a Pln-Apo 63×/1.4 oil Ph3 objective. Images were collected using Zen Blue 2.6 (Zeiss) and analyzed using the software Fiji[70] and the plugin MicrobeJ[71] to generate violin plots and fluorescent intensity heatmaps. […] The experiments were performed as biological triplicates.

B1: SepFK125E/F131A-Scarlet: Scarlet-tagged SepF impaired for FtsZ binding (protein)
chain: MSMLKKTKEFFGLAPYEAEHEDAYYADEPRYEGTAAYAPEYRERDYGYAPEAPAPVAPSPAPRSYQSTIVPVELHSFEDAQVIGGAFRDGDAVVFDMSLLSREEARRIVDFAAGLCFALRGKMQEIDSVTAAVVPELSNISTSELERAARIR
modifications: left off: mScarlet-I, C-terminal, kept
Q: Which “frequency of cells with n septa (ring-like structures)” value (“frequency of cells with n septa” for short) ([1]; n septa 0, replicate 1) does the source give for B1 here?
A: 0.122

Q: And the “frequency of cells with n septa” value ([1]; n septa 0, replicate 2)?
A: 0.074

Q: What about the “frequency of cells with n septa” value ([1]; n septa 0, replicate 3) of the same molecule?
A: 0.099

Q: What about the “frequency of cells with n septa” value ([1]; n septa 1, replicate 1) of the same molecule?
A: 0.227

Q: And the “frequency of cells with n septa” value ([1]; n septa 1, replicate 2)?
A: 0.25

Q: What about the “frequency of cells with n septa” value ([1]; n septa 1, replicate 3) of the same molecule?
A: 0.189

Q: What about the “frequency of cells with n septa” value ([1]; n septa 2, replicate 1) of the same molecule?
A: 0.246

Q: And the “frequency of cells with n septa” value ([1]; n septa 2, replicate 2)?
A: 0.193

Q: What about the “frequency of cells with n septa” value ([1]; n septa 2, replicate 3) of the same molecule?
A: 0.186

Q: What about the “frequency of cells with n septa” value ([1]; n septa 3, replicate 1) of the same molecule?
A: 0.241

Q: What about the “frequency of cells with n septa” value ([1]; n septa 3, replicate 2) of the same molecule?
A: 0.22

Q: What about the “frequency of cells with n septa” value ([1]; n septa 3, replicate 3) of the same molecule?
A: 0.232

Q: And the “frequency of cells with n septa” value ([1]; n septa 4, replicate 1)?
A: 0.102

Q: What about the “frequency of cells with n septa” value ([1]; n septa 4, replicate 2) of the same molecule?
A: 0.152

Q: What about the “frequency of cells with n septa” value ([1]; n septa 4, replicate 3) of the same molecule?
A: 0.133

Q: What about the “frequency of cells with n septa” value ([1]; n septa 5, replicate 1) of the same molecule?
A: 0.042

Q: What about the “frequency of cells with n septa” value ([1]; n septa 5, replicate 2) of the same molecule?
A: 0.077

Q: What about the “frequency of cells with n septa” value ([1]; n septa 5, replicate 3) of the same molecule?
A: 0.11

Q: And the “frequency of cells with n septa” value ([1]; n septa 6, replicate 1)?
A: 0.014

Q: What about the “frequency of cells with n septa” value ([1]; n septa 6, replicate 2) of the same molecule?
A: 0.03

Q: What about the “frequency of cells with n septa” value ([1]; n septa 6, replicate 3) of the same molecule?
A: 0.033

Q: What about the “frequency of cells with n septa” value ([1]; n septa 7, replicate 1) of the same molecule?
A: 0.006

Q: And the “frequency of cells with n septa” value ([1]; n septa 7, replicate 2)?
A: 0.003

Q: And the “frequency of cells with n septa” value ([1]; n septa 7, replicate 3)?
A: 0.015

Q: And the “ring-like structures per cell” value ([1]; overexpression in WT background)?
A: net increase in the number of ring-like structures per cell

Q: What about the “fold reduction of FtsZ binding (normalized FtsZ) versus SepF-Scarlet” value [2] of the same molecule?
A: 7.2 fold

Q: What about the “complementation of SepF depletion (growth)” value [3] of the same molecule?
A: completely failed to complement

Q: What about the “localization of Scarlet construct” value [4] of the same molecule?
A: diffuse in the cytoplasm

Q: And the mean cell length [5]?
A: 9.96
